Measurements published in US10444224B2, “Method for RNA detection and quantification” (Cornell University, priority 2011, dated 2019).
Values joined by “and” are separate entries in the source; they are usually repeats but may differ in a detail not shown here. Equal entries are not always repeated. “Also recorded” adds a separate entry of the source.

Legend:
HEK293 cells [1] = assay: Cytotoxicity assay after illumination (MTT); format: cell-based; conditions: 10 μM fluorophore, 10 min illumination
Method: HEK293 cells were grown on PLL-coated glass-bottom dishes as indicated above. At ˜80% confluency, the media was removed and cells were incubated for 30 min with fresh media alone, media plus vehicle (0.2% DMSO) or media plus 10 μM DMHBI, DFHBI or MG. Cells were then illuminated for 10 min at 37° C. with a Nikon Intensilight C-HGFIE 130 W mercury lamp with FITC (DMHBI and DFHBI) or Cy5 (malachite green) filter sets (Chroma Technology) on an inverted epifluorescence microscope. Control cells were illuminated for 10 min under identical conditions but in the absence of any fluorophore. Cells were then washed several times with media to remove fluorophores and assayed for mitochondrial activity with MTT (3-[4,5-dimethylthiazol-2-yl]-2,5-diphenyltetrazolium bromide) based cell proliferation kit (Roche) and prepared according to manufacturers instructions. MTT absorbance readings were performed at 550 nm with 650 nm absorbance used for background subtraction. Values are reported as percent change in viability compared to control samples (illumination without fluorophore or without vehicle) and each condition was repeated in triplicate and averaged.

HEK293 cells [2] = assay: Nonspecific fluorescence activation by cellular components; format: cell-based; conditions: 10 μM, 30 min
Method: HEK293 cells were grown on PLL-coated glass-bottom dishes (MatTek) in DMEM plus 10% FBS to ˜80% confluency. Media was removed, cells were washed twice with microscopy media (20 mM HEPES pH 7.4, 119 mM NaCl, 5 mM KCl, 2 mM CaCl2, 2 mM MgCl2, and 30 mM glucose) and then incubated for 30 min with microscopy media plus vehicle (0.2% DMSO) or 10 μM N,N-Dimethyl-4′-nitro-4-stilbenamine, thiazole orange, malachite green, or DFHBI. Live fluorescence images were then taken with a CoolSnap HQ2 CCD camera through a 40× oil objective mounted on a Nikon TE2000 microscope and analyzed with the NIS-Elements software.

[3] = Spinach-based RNA sensor fluorescence in response to ADP; format: biochemical
Method: Dose-response curves for each sensor in response to the target metabolite were determined by measuring the increase in fluorescence as a function of increasing target concentration in the presence of a fixed concentration of RNA sensor (10-50 nM) and a fixed concentration of fluorophore (10 μM). Curves were determined using a nonlinear regression analysis in Prism software and matched by least squares fitting to a standard dose-response model for 1:1 complexation.
The optimal sensors were chosen based on their low fluorescence in the absence of metabolite and the relative increase in fluorescence upon binding to the metabolite.

[4] = Sensor activation rate, ADP sensor; format: biochemical; conditions: 1 mM ADP, 37° C.
Method: A solution of RNA sensor (1 μM) and DFHBI (10 μM) was incubated with continuous stirring at 37° C. in a buffer containing 40 mM HEPES pH 7.4, 125 mM KCl and 1 mM MgCl2. The target metabolite (1 mM) was then rapidly added to the stirring solutions and fluorescence emission was recorded over a 15 min period under continuous illumination at 37° C. using the following instrumental parameters: excitation wavelength, 460 nm; emission wavelength, 500 nm; increment of data point collection, 0.05 s; slit widths, 10 nm. The fluorescence increase was then plotted against exposure time and normalized to the maximum intensity of each fluorophore.

[5] = test system: endogenous ADP levels in living E. coli cells; assay: Live cell imaging of ADP dynamics with the ADP sensor; format: cell-based; conditions: 200 μM DFHBI
Method: BL21-A Star E. coli cells (Invitrogen) were transformed with 40 ng of plasmid DNA expressing the tRNA-sensor chimeras in pET28c under the control of a T7 promoter. Cells were plated, grown overnight and single colonies were picked for inoculation in Luria Broth containing kanamycin (LB-Kan). At OD600=0.4, 1 mM of IPTG was added to the culture and shaking was continued at 37° C. for more 2 hours. 100 uL of culture was then removed, spun down to pelleted the culture, and resuspended in 2 mL of pH 6.0 M9 minimal media. A 200 μl aliquot of resuspended culture was then plated on poly-L-lysine (PLL)-coated 24-well glass-bottom dishes (MatTek) and incubated for 45 minutes at 37° C. Adherent cells were washed twice and then incubated with 200 μM DFHBI in pH 6.0 M9 minimal media for 45 min at 37° C. Cells then were washed twice and incubated with M9 media containing 200 μM DFHBI and the appropriate carbon source (2 mg/ml glucose, 6.65 mg/ml potassium acetate, 4.05 mg/ml glycerol or 5.51 mg/ml succinate). Live fluorescence images were taken with a CoolSnap HQ2 CCD camera through a 60× oil objective mounted on a Nikon TE2000 microscope and analyzed with the NIS-Elements software. The filter set used was a sputter coated filter cube with excitation filter 470/40, dichroic mirror 495 (long pass) and emission filter 525/50 (Chroma Technology).
Cells transformed with ADP sensor were grown overnight in LB-Kan. Cultures were then diluted to OD600=0.1 in 200 mL LB-Kan and grown to OD600=0.4. Cells were then induced for 2 hours with 1 mM IPTG at 37° C. with constant shaking. The entire culture was split in two samples and then placed in a centrifuged for 5 min at 1,000×g. Pellets were then washed once and resuspended in […] of M9 media containing 200 μM DFHBI and either 2.00 mg/ml glucose or 6.68 mg/ml potassium acetate as the carbon source. […] Aliquots of culture were removed every 30 min, pelleted, lysed, and ADP levels were measured with an ADP Fluorometric Assay Kit (Abcam) according to manufacturer's instructions.

[6] = Truncation and mutagenesis of 24-2, DFHBI fluorescence; format: biochemical; conditions: with DFHBI
Method: Secondary structure prediction was performed using Mfold online software (Zuker, “Mfold Web Server for Nucleic Acid Folding and Hybridization Prediction,” Nucl. Acids Res. 31(13): 3406-3415 (2003), which is hereby incorporated by reference in its entirety). Mutated and truncated RNAs were created by ordering single stranded DNA templates (Integrated DNA Technologies) with the desired mutations or truncations and PCR amplifying these sequences to create double stranded DNA templates using primers which included a 5′ T7 promoter sequence. PCR products were then purified with PCR purification columns (Qiagen) and used as templates for in vitro T7 transcription reactions (Epicentre).

**Q.** Which results are given for `CC1=NC(=Cc2cc(F)c(O)c(F)c2)C(=O)N1C` [DFHBI, 4-(3,5-difluoro-4-hydroxybenzylidene)-1,2-dimethyl-imidazol-5-one]?
**A.** cytotoxicity / phototoxicity upon illumination (HEK293 cells [1]): negligible phototoxicity; nonspecific fluorescence activation upon incubation with cells (HEK293 cells [2]): does not exhibit nonspecific fluorescence activation

B1: ADP sensor: Spinach-based turn-on RNA sensor for ADP, transducer stem 3 (nucleic acid)
chain: GACGCGACUGAAUGAAAUGGUGAAGGACGGGUCCAGCACGAGGGGGAAACCCCGGACAAUCAGACACGGUGCUUGUUGAGUAGAGUGUGAGCUCCGUAACUAGUCGCGUC
modifications: listed as RNA, chemistry not given here
**Q.** Which results are given for B1?
**A.** increase in fluorescence in the presence of ADP ([3]; 10 μM DFHBI, 1 mM ADP, versus no ADP): 20 fold and 18 fold; molecular discrimination: activation by ATP, AMP, cAMP, NAD+ ([3]; 1 mM competing molecules): negligibly activated; also recorded: specific for ADP; EC50 ([3]; dose-response, 10 μM fluorophore, read-out: half-maximal fluorescence (EC50), ADP): 270 µM; time to increase in fluorescence after ADP addition [4]: less than 10 s; sensor fluorescence after switch to succinate or glycerol [5]: did not substantially increase fluorescence; increase in sensor fluorescence over baseline after switch from glucose to acetate media ([5]; by 3 hr): ~6 fold; increase in sensor fluorescence over baseline after switch from glucose to acetate media ([5]; within 30 min): 1.8 fold

B2: 24-2-min: final truncated (minimized) 24-2 sequence (nucleic acid)
chain: GACGCGACCGAAAUGGUGAAGGACGGGUCCAGUGCUUCGGCACUGUUGAGUAGAGUGUGAGCUCCGUAACUGGUCGCGUC
modifications: listed as RNA, chemistry not given here
**Q.** For B2, which “fluorescence relative to full-length 24-2” value [6] is on record?
**A.** ~95%
